Patent US20180339041A1 (Kyowa Kirin, published 2018)
Blank lines part the entries; values can stand above or below the binder they belong to.

Key:
[1] = target: T1, C-terminally FLAG-tagged human Gas6 recombinant protein (hGas6-F) (human, UniProt Q14393 31-678, gamma-carboxylated glutamic acid residues in the Gla domain (producer cells co-express rat VKOR and human GGCX); positions not given); assay: competitive ELISA, hAxl-hFc immobilised, 50 ng/mL hGas6-F
T1 construct: also called human Gas6-F; human Gas6 protein
T1 sequence: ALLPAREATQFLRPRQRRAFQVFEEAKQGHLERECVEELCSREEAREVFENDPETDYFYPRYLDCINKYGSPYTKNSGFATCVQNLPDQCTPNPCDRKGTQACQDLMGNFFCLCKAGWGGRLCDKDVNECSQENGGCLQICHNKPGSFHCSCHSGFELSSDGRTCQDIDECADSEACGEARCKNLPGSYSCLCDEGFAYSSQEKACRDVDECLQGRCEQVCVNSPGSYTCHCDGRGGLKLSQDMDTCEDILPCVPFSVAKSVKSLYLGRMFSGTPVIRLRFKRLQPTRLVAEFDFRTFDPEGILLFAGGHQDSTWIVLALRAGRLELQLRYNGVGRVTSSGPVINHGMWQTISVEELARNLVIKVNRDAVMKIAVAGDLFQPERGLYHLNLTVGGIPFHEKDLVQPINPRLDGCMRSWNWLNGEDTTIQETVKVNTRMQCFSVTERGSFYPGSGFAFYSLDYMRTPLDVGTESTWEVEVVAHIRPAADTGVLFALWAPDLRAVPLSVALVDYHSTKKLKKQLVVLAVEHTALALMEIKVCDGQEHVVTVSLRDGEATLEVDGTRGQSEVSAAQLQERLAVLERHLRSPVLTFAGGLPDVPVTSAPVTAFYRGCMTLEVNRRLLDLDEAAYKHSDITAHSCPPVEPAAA

[2] = target: T2, C-terminally FLAG-tagged cynomolgus monkey Gas6 recombinant protein (cGas6-F) (cynomolgus monkey, UniProt Q14393 31-678 (human entry), gamma-carboxylated glutamic acid residues in the Gla domain (producer cells co-express rat VKOR and human GGCX); positions not given); assay: ELISA: cGas6-F (1 µg/mL) captured on coated anti-FLAG M2 antibody; biotinylated test antibody; streptavidin-HRP/TMB; absorbance 450-570 nm, N=2 (Example 6) [B]
T2 construct: also called cynomolgus monkey Gas6-F; monkey Gas6-F
T2 chain: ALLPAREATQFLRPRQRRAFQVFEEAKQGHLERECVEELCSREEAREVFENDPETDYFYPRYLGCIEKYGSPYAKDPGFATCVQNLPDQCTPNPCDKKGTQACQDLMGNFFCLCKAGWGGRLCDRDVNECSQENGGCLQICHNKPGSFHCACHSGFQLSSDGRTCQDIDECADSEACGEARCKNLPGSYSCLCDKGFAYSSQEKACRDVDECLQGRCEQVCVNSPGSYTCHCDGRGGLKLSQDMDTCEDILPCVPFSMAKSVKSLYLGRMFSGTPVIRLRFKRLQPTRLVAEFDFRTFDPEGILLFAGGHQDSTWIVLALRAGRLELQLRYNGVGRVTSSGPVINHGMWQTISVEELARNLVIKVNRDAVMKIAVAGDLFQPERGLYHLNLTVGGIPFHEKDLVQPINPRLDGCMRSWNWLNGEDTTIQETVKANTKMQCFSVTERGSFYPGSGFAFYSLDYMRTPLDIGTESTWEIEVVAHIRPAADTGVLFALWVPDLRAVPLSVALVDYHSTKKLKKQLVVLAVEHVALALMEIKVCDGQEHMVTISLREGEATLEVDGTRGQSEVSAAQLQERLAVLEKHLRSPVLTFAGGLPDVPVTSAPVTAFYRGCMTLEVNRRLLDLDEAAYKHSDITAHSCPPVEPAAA
Procedure: First, 2 μg/mL anti-FLAG antibody [Monoclonal ANTI-FLAG M2 antibody produced in mouse (manufactured by Sigma-Aldrich Co. LLC) diluted with PBS (manufactured by Nacalai Tesque, Inc.)] was dispensed at 50 μL/well to a 96-well plate for ELISA (manufactured by Nalge Nunc International), and the plate was left standing overnight at 4° C. for adsorption. After removal of the immobilization solution, 1% BSA-PBS (manufactured by Nacalai Tesque, Inc.) was added thereto at 300 μL/well, and the plate was left standing at room temperature for 1 hour for blocking and washed five times with Tween 20-PBS (manufactured by Wako Pure Chemical Industries Ltd.).
Each antibody solution was dispensed thereto at 50 μL/well, and the plate was left standing at room temperature for 1 hour. This plate was washed five times with Tween 20-PBS. Then, Streptavidin HRP Conjugate (manufactured by R&D Systems, Inc.) diluted 200-fold with 1% BSA-PBS was dispensed thereto at 50 μL/well, and the plate was left standing at room temperature for 1 hour. This plate was washed five times with Tween 20-PBS, and TMB (manufactured by Sigma-Aldrich Co. LLC) was added thereto at 50 μL/well and reacted. […] The absorbance at a sample wavelength of 450 nm and a reference wavelength of 570 nm (450 nm-570 nm) was measured using a plate reader.

[3] = target: T3, C-terminally FLAG-tagged mouse Gas6 recombinant protein (mGas6-F) (mouse, UniProt Q61592 28-674, limits assumed, gamma-carboxylated glutamic acid residues in the Gla domain (producer cells co-express rat VKOR and human GGCX); positions not given); assay: competition ELISA: mAxl-mFc coated; mGas6-F at 50 ng/mL final premixed with the antibody; bound Gas6-F detected with anti-FLAG M2-HRP; blocked partner mAxl-mFc (Examples 5(4) and 7) [C]
T3 construct: also called mouse Gas6-F
T3 sequence (looked up): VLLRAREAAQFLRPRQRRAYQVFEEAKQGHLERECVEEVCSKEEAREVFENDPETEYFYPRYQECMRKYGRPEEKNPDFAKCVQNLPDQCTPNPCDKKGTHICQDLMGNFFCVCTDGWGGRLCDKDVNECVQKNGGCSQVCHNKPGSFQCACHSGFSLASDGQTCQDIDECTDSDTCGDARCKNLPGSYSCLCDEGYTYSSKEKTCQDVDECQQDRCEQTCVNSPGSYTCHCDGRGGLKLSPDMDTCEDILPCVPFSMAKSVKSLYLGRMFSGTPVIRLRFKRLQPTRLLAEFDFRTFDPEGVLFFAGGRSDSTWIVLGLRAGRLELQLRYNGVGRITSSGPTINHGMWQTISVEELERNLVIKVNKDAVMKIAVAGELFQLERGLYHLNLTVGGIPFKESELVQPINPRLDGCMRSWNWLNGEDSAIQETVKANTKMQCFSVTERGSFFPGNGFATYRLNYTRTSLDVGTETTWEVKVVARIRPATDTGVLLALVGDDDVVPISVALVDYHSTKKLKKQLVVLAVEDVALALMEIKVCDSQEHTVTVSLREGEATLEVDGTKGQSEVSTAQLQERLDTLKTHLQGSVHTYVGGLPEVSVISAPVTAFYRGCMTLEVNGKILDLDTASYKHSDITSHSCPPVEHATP

antibody:Gas6 molar concentration ratio at complete inhibition [1]: 2 antibody:Gas6 molar ratio | EC50 (read off the curve) [2]: ~0.004 mg/L | IC50 (read off the curve) [3]: ~0.09 mg/L
B1: anti-human Gas6 mouse monoclonal antibody KM5320 (KM5320-mKG1 antibody) (antibody, V domains shown)
VH: QIQLVQSGPELKKPGETVKISCKASGYTFTNYGMNWVKQAPGKGLKWMGWINTETGEPTYSDDFKGRFAFSLETSATTAYLQINNLRNEDMATYFCAREDGYYGTLDYWGQGTSVTVSS
VL: SIVMTQTPKFLLVSAGDRVTITCKASQSVSNDVAWYQQKPGQSPKVLIYYASNRYTGVPDRFTGSGYGTDFTFTISTVQAEDLAVYFCQQDYSSPWTFGGGTKLEIK
notes: Hybridoma-derived mouse IgG1, kappa; also called KM5320 antibody

antibody:Gas6 molar concentration ratio at complete inhibition [1]: 0.5 antibody:Gas6 molar ratio | EC50 (read off the curve) [2]: ~0.004 mg/L | IC50 (read off the curve) [3]: ~0.03 mg/L
B2: anti-human Gas6 mouse monoclonal antibody KM5321 (KM5321-mKG1 antibody) (antibody, V domains shown)
VH: QIQLVQSGPELKKPGETVKISCRASGYTFTNYGMNWVKQAPGKGLKWMGWINTNTGEPTYTEEFKGRFAFSLETSATTAYLQINDLKNEDTATYFCARDEGWFVYWGQGTLITVSA
VL: ETTVTQSPASLSVATGEKVTIRCITSTDIDDDMNWYQQKPGEPPKLLISEGNTLRPGVPSRFSSSGYGTDFVFTIENTLSEDVADYYCLQTDSVPLTFGAGTKLELK
notes: Hybridoma-derived mouse IgG1, kappa; also called KM5321 antibody
